Test results: patent publication US20240336907A1, “NOVEL ENDO-ß-N-ACETYLGLUCOSAMINIDASE” (priority 2020, published 2024)

How the values were obtained:
[1] = system: mAb1; experiment: Evaluation of reaction temperature for hydrolysis of mAb1 sugar chain; format: biochemical
Method: The hydrolysis rates of a sugar chain with Endo-Si and EndoS at individual temperatures were measured as follows. A 50 mM Tris-HCl buffer (pH 7.5) solution (50 μL) containing 0.1 mg of mAb1 and 10 ng of Endo-Si WT or EndoS WT was prepared and incubated at each temperature of 27, 29, 31, 35, 37, 40, 43, 46, 48, and 50° C. Each of the reaction solutions at a half hour after initiation of a reaction was sampled and the hydrolysis rate of a sugar chain was calculated in accordance with the aforementioned method.

[2] = system: IgE; experiment: Substrate specificity in various antibodies (band shift in electrophoresis); format: biochemical, human; conditions: 10 μg substrate, 1 μg enzyme, 37° C., pH 7.5, two hours
Method: (§1) The hydrolysis activities of Endo-Si, EndoS and PNGaseF on various antibodies were measured as follows. A 50 mM Tris-HCl buffer (pH 7.5) solution (50 μL) containing each of various substrates (10 μg), and 1 μg Endo-Si WT was prepared and incubated at 37° C. As the substrate, human IgG1-4, IgA, and IgE (all manufactured by Sigma Aldrich) were used. As the controls, 1 μg of EndoS WT and 500 U PNGase F PRIME (manufactured by N-zyme Scientifics) were used. Two hours after initiation of the reaction, a sample was taken from the reaction solution and analyzed for protein by a fully automated electrophoresis system mentioned above.
(§2) When a sugar chain is hydrolyzed by addition of an enzyme, the band of a protein shifts to the lower molecular weight side compared to when the enzyme was not added.

[3] = system: IgA; experiment: as above; format: biochemical, human; conditions: 10 μg substrate, 1 μg enzyme, 37° C., pH 7.5, two hours
Method: as §1, §2

B1: Endo-Si WT: endo-β-N-acetylglucosaminidase derived from Streptococcus iniae, amino acid positions 34 to 928 in SEQ ID NO: 2 (protein, listed as Streptococcus iniae)
chain: REELKMPNGLEQSIADVEAKIDALTYLSKNSKDEFKHSMYEIPSNREHKPVSPKQALQNAKKADAQAERLAKMTIPKKEELKALEGPLYGGYFRTWQDKTSDPTETNKVNSFGELPKEVDLAFVFHDYTKDYSLFWEELATKQVPKLNKQGTRVIRTIPWRFLSGADHSDISADKEKFPNTEAGNKALAKAIVDEYVYKYNLDGLDIDIERDSVPKVNDKEDPEALARTVEVFKEIGKLIGANGADKSRLLIMDTTYTAEENPLIKETAQYLNLLLVQVYGFSGENGNYLHHKNILDETSSMEGRWQGYSKYIRPEQYMVGFSFYEEKDFNNRWKDINEEDPSDPHIGEKIQGTRAERYAKWQPKTGGLKGGLFSYAIDRDGVAQPKQKTEHPELDKIVKSEYKVSKALKKLMMTDDQYQPIDQSDFPDKALRESIIKQVGTRRGDLERFKGTLRLDNPEIKDLTGLNKLKRVAKLELINLPKITKIDKDDLPQNLKPLTDNQKSNLEIKGTYDDSKLYKDIPAFDLVISGLSGLESLDISGHQRDTLSGIDASTLPSLKAINISDNHFDLAQGTENRHILDTILATLAKNGASTASFDKQKPKGLYPESYSTAPLHLQVGQGKINVIDDLIFGTRTNQNTLINTENDFEAYKEQTIQGKPFIAPDYLYDNFKVSYKEYSASIVDSTLAETTDKTIDTAKAETYQVTVSNKDGKTVHSVKVIVGDEKPMMVNLAQDAKIIGTDNMTQSAKVFDGQKDQFLLSWNKDSSVIFELKTPGTAKHWRFFDDGKNDSVTLSVFKGDASNFETEKDKAENWVEITKDSRKNDDKVFSSPLEVDNAKYLKVTIKKEAKYIYFNELQILGYPGVVAKKTADDLRPTEADKSDDKSDKNDTEAK
Q: Which “hydrolysis activity compared with EndoS” value ([1]; at individual temperatures 27 to 50° C.) does the source give for B1 here?
A: higher hydrolysis activity than EndoS

Q: And the “optimum reaction temperature for hydrolysis: particularly around” value ([1]; mAb1, pH 7.5, half hour reaction, particularly around (35° C. to 39° C.))?
A: around 37 °C

Q: What about the “hydrolysis activity on IgE” value [2] of the same molecule?
A: no hydrolysis activity

Q: What about the “hydrolysis activity on IgA” value [3] of the same molecule?
A: no hydrolysis activity
